Measured values taken from the supplement of paper PMC10065799, “High-throughput profiling of sequence recognition by tyrosine kinases and SH2 domains using bacterial peptide display” (eLife, 2023).

The sequences below were run on AncSZ (assay: phosphorylation enrichment, bacterial display (enrichment ratio); higher = better substrate or ligand; peptides without Tyr show the background).
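Note: 11-residue human phosphosite peptides and single-mutation variants displayed on the E. coli surface, counted by deep sequencing, each peptide's frequency after selection divided by its frequency in the unselected input library; frequency after pTyr selection over input frequency; kinase dosed for 20-30% of maximal phosphorylation in three min.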

Row | Sequence | phosphorylation enrichment
1 | NFRTTYVNANE [KCNH2_Y475] | 0.892
2 | LEKISYVYMKR [SSX7_Y48] | 1.72
3 | WGLRSYYETSK [MAGED2_Y448] | 0.958
4 | AAILGYCHGEA [XPC_Y669_R671H] | 0.975
5 | LGSNGYKKLLK [SEPSECS_Y334] | 0.697
6 | DASENYFVMDS [TMEM240_Y77_T80M] | 1.91
7 | GGPAGYLRRAS [PKLR_Y38] | 0.717
8 | LYDPDYMKVIL [CYP4A22_Y104] | 1.96
9 | KYVKMYDNHQL [MYO9A_Y203] | 0.552
10 | CTTIHYNYMYN [TP53_Y234_C238Y] | 1.12
11 | AVISVYDLVAF [PSEN1_Y256_V261F] | 1.37
12 | SERNNYSRVAN [CWC22_Y797] | 0.501
13 | NDKLCYEVSSP [CDH13_Y66_R65C] | 1.52
14 | HNELFYEAAEH [VANGL1_Y345_E347A_YF] | 1.85
15 | LFLALYTGLVR [PIGB_Y402_H407R] | 1.31
16 | LRFEVYGGENE [STOX1_Y610_YF] | 1.15
17 | RTEAQYRFIYM [PTPN11_Y511_Q506R] | 1.2
18 | IHYPPYTDWNQ [ALDH3B2_Y365] | 0.889
19 | EWCSPYGLTPR [GRIN3B_Y601_R598C] | 0.815
20 | FVPAAYVKKLD [SPTAN1_Y1020] | 0.791
21 | DGTIVCTGLET [USH2A_Y4487_Y4487C] | 0.955
22 | WKEIEYEVVPD [CPS1_Y634_R638P] | 1.43
23 | ALSDGYWVVSN [TPP1_Y459] | 1.19
24 | VDDQIYFFRKP [PBRM1_Y1289_E1287Q_YF] | 2.49
25 | PFADPYFDFEI [ZC3H18_Y371_YF] | 1.48
26 | GTQCSYLLSRK [UGT3A1_Y123] | 0.634
27 | REVVNYVQKRN [RMI1_Y450] | 0.931
28 | HFVDEYDLTIE [KRAS_Y32_P34L] | 2.56
29 | IIRFNYLLDVL [FGFR4_Y237_S232I_YF] | 1.2

The sequences below were run against Jak2 (UniProt O60674) in the same assay as above.
Chain of Jak2 (O60674 whole entry, looked up): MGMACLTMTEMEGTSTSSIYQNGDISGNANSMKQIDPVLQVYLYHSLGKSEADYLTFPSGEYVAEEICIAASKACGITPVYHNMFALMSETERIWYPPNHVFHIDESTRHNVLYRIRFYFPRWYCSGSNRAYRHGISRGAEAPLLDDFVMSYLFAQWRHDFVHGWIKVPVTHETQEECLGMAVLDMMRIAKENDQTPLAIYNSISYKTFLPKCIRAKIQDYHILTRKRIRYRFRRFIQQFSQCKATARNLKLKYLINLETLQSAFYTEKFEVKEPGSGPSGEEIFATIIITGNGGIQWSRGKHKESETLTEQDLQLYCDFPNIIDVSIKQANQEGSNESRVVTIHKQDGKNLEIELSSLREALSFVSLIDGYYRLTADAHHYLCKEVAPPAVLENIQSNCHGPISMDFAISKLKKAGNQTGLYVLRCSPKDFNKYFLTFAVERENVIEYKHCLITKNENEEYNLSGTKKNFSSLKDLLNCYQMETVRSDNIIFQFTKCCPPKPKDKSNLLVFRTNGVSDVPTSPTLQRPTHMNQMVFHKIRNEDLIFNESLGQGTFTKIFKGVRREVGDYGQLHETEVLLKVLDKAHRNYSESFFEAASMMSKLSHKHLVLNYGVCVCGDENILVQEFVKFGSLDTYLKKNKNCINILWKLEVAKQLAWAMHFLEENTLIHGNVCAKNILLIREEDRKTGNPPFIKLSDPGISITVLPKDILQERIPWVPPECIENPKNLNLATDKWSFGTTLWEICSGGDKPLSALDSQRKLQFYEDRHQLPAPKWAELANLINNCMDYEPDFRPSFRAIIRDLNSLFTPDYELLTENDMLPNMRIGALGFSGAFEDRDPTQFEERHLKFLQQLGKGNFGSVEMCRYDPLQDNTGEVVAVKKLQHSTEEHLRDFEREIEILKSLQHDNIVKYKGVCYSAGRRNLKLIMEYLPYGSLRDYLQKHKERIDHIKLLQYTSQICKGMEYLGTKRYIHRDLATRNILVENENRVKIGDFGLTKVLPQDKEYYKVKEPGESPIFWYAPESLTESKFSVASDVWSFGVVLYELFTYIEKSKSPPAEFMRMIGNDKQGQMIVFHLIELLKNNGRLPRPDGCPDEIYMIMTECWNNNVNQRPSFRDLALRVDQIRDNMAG

Row | Sequence | phosphorylation enrichment
30 | NFRTTYVNANE [KCNH2_Y475] | 1.29
31 | LEKISYVYMKR [SSX7_Y48] | 1.37
32 | WGLRSYYETSK [MAGED2_Y448] | 0.972
33 | AAILGYCHGEA [XPC_Y669_R671H] | 0.725
34 | LGSNGYKKLLK [SEPSECS_Y334] | 0.59
35 | DASENYFVMDS [TMEM240_Y77_T80M] | 0.952
36 | GGPAGYLRRAS [PKLR_Y38] | 0.529
37 | LYDPDYMKVIL [CYP4A22_Y104] | 2.27
38 | KYVKMYDNHQL [MYO9A_Y203] | 0.51
39 | CTTIHYNYMYN [TP53_Y234_C238Y] | 0.91
40 | AVISVYDLVAF [PSEN1_Y256_V261F] | 1.08
41 | SERNNYSRVAN [CWC22_Y797] | 0.461
42 | NDKLCYEVSSP [CDH13_Y66_R65C] | 1
43 | HNELFYEAAEH [VANGL1_Y345_E347A_YF] | 0.944
44 | LFLALYTGLVR [PIGB_Y402_H407R] | 1.18
45 | LRFEVYGGENE [STOX1_Y610_YF] | 1.29
46 | RTEAQYRFIYM [PTPN11_Y511_Q506R] | 1.5
47 | IHYPPYTDWNQ [ALDH3B2_Y365] | 0.736
48 | EWCSPYGLTPR [GRIN3B_Y601_R598C] | 0.778
49 | FVPAAYVKKLD [SPTAN1_Y1020] | 0.731
50 | DGTIVCTGLET [USH2A_Y4487_Y4487C] | 1.06
51 | WKEIEYEVVPD [CPS1_Y634_R638P] | 1.18
52 | ALSDGYWVVSN [TPP1_Y459] | 1.79
53 | VDDQIYFFRKP [PBRM1_Y1289_E1287Q_YF] | 1.61
54 | PFADPYFDFEI [ZC3H18_Y371_YF] | 1.7
55 | GTQCSYLLSRK [UGT3A1_Y123] | 0.655
56 | REVVNYVQKRN [RMI1_Y450] | 0.598
57 | HFVDEYDLTIE [KRAS_Y32_P34L] | 2.13
58 | IIRFNYLLDVL [FGFR4_Y237_S232I_YF] | 0.89

What follows are sequences tested against EPHB2 (UniProt P29323) in the same assay as above.
Chain of EPHB2 (P29323 whole entry, looked up): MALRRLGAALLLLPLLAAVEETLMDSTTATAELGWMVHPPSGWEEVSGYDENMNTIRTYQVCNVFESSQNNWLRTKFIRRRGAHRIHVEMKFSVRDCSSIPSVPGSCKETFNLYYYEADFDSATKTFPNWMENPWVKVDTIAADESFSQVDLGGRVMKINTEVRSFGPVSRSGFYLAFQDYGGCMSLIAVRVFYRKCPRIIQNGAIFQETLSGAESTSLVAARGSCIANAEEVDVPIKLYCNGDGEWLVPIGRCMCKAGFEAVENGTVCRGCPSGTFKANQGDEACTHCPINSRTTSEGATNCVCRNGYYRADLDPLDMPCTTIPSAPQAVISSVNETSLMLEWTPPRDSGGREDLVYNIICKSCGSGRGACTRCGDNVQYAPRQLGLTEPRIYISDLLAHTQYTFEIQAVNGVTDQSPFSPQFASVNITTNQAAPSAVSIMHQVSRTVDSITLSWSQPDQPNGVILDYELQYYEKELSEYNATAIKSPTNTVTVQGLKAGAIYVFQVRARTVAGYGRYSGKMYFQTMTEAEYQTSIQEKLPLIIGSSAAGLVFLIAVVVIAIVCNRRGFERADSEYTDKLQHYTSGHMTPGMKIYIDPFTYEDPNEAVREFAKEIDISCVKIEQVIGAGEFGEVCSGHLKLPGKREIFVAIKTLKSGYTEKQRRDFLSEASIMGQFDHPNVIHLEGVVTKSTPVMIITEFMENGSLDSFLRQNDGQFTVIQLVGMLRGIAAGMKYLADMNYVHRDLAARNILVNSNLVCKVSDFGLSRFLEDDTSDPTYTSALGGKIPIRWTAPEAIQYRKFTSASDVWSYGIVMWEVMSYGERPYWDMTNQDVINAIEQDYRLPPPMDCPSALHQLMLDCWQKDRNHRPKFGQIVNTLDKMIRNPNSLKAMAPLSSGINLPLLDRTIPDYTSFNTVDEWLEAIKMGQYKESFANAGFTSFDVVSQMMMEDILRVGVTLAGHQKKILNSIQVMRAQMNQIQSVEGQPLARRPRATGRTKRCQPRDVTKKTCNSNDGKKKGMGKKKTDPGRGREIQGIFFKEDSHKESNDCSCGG

Row | Sequence | phosphorylation enrichment
59 | NFRTTYVNANE [KCNH2_Y475] | 0.464
60 | LEKISYVYMKR [SSX7_Y48] | 1.37
61 | WGLRSYYETSK [MAGED2_Y448] | 0.549
62 | AAILGYCHGEA [XPC_Y669_R671H] | 0.75
63 | LGSNGYKKLLK [SEPSECS_Y334] | 0.437
64 | DASENYFVMDS [TMEM240_Y77_T80M] | 4.43
65 | GGPAGYLRRAS [PKLR_Y38] | 0.398
66 | LYDPDYMKVIL [CYP4A22_Y104] | 2.61
67 | KYVKMYDNHQL [MYO9A_Y203] | 0.448
68 | CTTIHYNYMYN [TP53_Y234_C238Y] | 0.69
69 | AVISVYDLVAF [PSEN1_Y256_V261F] | 9.61
70 | SERNNYSRVAN [CWC22_Y797] | 0.59
71 | NDKLCYEVSSP [CDH13_Y66_R65C] | 0.724
72 | HNELFYEAAEH [VANGL1_Y345_E347A_YF] | 0.842
73 | LFLALYTGLVR [PIGB_Y402_H407R] | 0.573
74 | LRFEVYGGENE [STOX1_Y610_YF] | 0.855
75 | RTEAQYRFIYM [PTPN11_Y511_Q506R] | 0.9
76 | IHYPPYTDWNQ [ALDH3B2_Y365] | 0.676
77 | EWCSPYGLTPR [GRIN3B_Y601_R598C] | 0.569
78 | FVPAAYVKKLD [SPTAN1_Y1020] | 0.472
79 | DGTIVCTGLET [USH2A_Y4487_Y4487C] | 0.558
80 | WKEIEYEVVPD [CPS1_Y634_R638P] | 0.961
81 | ALSDGYWVVSN [TPP1_Y459] | 0.518
82 | VDDQIYFFRKP [PBRM1_Y1289_E1287Q_YF] | 0.785
83 | PFADPYFDFEI [ZC3H18_Y371_YF] | 0.369
84 | GTQCSYLLSRK [UGT3A1_Y123] | 0.554
85 | REVVNYVQKRN [RMI1_Y450] | 0.595
86 | HFVDEYDLTIE [KRAS_Y32_P34L] | 0.423
87 | IIRFNYLLDVL [FGFR4_Y237_S232I_YF] | 0.478

What follows are sequences tested against MERTK (UniProt Q12866) in the same assay as above.
Chain of MERTK (Q12866 whole entry, looked up): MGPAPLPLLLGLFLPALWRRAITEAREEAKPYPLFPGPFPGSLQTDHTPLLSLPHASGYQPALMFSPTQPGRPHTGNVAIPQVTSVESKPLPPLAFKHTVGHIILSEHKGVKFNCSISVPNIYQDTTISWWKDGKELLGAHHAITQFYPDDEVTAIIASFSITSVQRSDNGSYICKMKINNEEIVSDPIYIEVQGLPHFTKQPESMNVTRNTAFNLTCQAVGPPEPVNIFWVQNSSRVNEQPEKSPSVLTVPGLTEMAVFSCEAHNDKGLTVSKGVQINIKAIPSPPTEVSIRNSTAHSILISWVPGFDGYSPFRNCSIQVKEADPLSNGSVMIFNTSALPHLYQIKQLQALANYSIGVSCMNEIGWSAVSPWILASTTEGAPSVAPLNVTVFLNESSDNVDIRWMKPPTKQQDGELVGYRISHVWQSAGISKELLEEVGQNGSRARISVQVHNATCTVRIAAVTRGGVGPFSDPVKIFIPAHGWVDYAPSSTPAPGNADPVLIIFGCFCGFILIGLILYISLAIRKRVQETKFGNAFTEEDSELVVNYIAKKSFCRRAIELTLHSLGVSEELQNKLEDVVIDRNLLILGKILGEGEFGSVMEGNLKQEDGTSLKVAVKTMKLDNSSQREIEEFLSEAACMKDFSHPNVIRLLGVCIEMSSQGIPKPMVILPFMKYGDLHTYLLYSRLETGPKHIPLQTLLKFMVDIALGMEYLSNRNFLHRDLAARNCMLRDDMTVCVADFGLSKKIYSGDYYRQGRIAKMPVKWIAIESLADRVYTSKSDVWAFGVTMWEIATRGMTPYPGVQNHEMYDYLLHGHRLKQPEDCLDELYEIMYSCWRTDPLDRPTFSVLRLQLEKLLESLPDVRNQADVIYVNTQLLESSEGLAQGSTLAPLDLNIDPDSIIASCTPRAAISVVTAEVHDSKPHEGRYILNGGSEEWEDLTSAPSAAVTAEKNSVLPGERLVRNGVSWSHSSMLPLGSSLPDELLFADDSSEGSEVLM

Row | Sequence | phosphorylation enrichment
88 | NFRTTYVNANE [KCNH2_Y475] | 0.482
89 | LEKISYVYMKR [SSX7_Y48] | 0.81
90 | WGLRSYYETSK [MAGED2_Y448] | 0.298
91 | AAILGYCHGEA [XPC_Y669_R671H] | 0.827
92 | LGSNGYKKLLK [SEPSECS_Y334] | 0.773
93 | DASENYFVMDS [TMEM240_Y77_T80M] | 1.92
94 | GGPAGYLRRAS [PKLR_Y38] | 0.528
95 | LYDPDYMKVIL [CYP4A22_Y104] | 1.51
96 | KYVKMYDNHQL [MYO9A_Y203] | 0.544
97 | CTTIHYNYMYN [TP53_Y234_C238Y] | 1
98 | AVISVYDLVAF [PSEN1_Y256_V261F] | 8.85
99 | SERNNYSRVAN [CWC22_Y797] | 0.391
100 | NDKLCYEVSSP [CDH13_Y66_R65C] | 0.394
101 | HNELFYEAAEH [VANGL1_Y345_E347A_YF] | 1.46
102 | LFLALYTGLVR [PIGB_Y402_H407R] | 0.759
103 | LRFEVYGGENE [STOX1_Y610_YF] | 0.454
104 | RTEAQYRFIYM [PTPN11_Y511_Q506R] | 0.691
105 | IHYPPYTDWNQ [ALDH3B2_Y365] | 0.429
106 | EWCSPYGLTPR [GRIN3B_Y601_R598C] | 1.01
107 | FVPAAYVKKLD [SPTAN1_Y1020] | 0.356
108 | DGTIVCTGLET [USH2A_Y4487_Y4487C] | 0.47
109 | WKEIEYEVVPD [CPS1_Y634_R638P] | 0.494
110 | ALSDGYWVVSN [TPP1_Y459] | 0.372
111 | VDDQIYFFRKP [PBRM1_Y1289_E1287Q_YF] | 1.42
112 | PFADPYFDFEI [ZC3H18_Y371_YF] | 0.638
113 | GTQCSYLLSRK [UGT3A1_Y123] | 0.436
114 | REVVNYVQKRN [RMI1_Y450] | 0.869
115 | HFVDEYDLTIE [KRAS_Y32_P34L] | 0.812
116 | IIRFNYLLDVL [FGFR4_Y237_S232I_YF] | 0.465
